Molecular target: T1, BtubA/B heterodimer (bacterial tubulin) from Prosthecobacter dejongeii (Prosthecobacter dejongeii, UniProt Q8GCC5 1-473; Q8GCC1 1-426)
T1 construct: The same preparation stood as soluble (non-polymerized) heterodimer or, in polymerization buffer with GTP, as filaments; the assay tells which; Construct was a gift from JM; Andreu; also called Btubs; Btub filaments; source: E. coli C41 (DE3), co-expressed from a bicistronic construct, purified (polymerization/depolymerization cycle, SEC)
T1 sequence (looked up) 1: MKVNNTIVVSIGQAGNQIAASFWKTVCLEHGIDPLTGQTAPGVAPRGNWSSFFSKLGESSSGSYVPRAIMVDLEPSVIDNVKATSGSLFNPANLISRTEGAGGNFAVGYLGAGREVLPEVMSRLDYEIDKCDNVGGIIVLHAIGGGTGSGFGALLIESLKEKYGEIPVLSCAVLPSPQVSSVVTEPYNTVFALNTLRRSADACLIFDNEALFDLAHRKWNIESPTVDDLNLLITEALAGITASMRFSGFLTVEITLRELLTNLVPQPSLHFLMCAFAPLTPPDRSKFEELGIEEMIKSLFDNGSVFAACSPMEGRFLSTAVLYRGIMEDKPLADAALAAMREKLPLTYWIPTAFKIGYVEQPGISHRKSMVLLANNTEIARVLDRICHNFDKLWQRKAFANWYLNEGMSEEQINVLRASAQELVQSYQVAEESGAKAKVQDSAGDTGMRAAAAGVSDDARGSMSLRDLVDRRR
T1 sequence (looked up) 2: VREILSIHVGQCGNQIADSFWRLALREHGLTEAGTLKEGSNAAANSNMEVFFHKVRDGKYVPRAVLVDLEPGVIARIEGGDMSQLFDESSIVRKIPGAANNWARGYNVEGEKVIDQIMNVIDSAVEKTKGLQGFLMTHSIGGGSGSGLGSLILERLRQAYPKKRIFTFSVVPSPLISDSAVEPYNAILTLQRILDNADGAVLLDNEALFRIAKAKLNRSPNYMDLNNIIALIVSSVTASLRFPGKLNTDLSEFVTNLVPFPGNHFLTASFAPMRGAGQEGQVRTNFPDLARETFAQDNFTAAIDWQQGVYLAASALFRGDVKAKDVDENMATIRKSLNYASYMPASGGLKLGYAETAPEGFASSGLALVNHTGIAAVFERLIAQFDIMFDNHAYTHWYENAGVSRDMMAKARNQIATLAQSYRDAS
Experiment: co-sedimentation; 10 μM BtubA/B with 10 or 20 μM Bklc in polymerization buffer (20 mM TrisHCl pH 7.5, 300 mM potassium glutamate, 5 mM MgCl2, 1 mM EGTA, 2 mM GTP), 10 min 25 °C, 100.000 x g 30 min; pellet depolymerized at 4 °C (S2); densitometry of Coomassie gels
Details: both partners purified

B1: Bacterial kinesin light chain (Bklc) from Prosthecobacter vanneervenii, C-terminal poly-histidine tag (natural protein, UniProt A8Y5U5 1-256, looked up)
chain: MDTALERQIASASRSVEEARRLAYHDPIRVGALVEQISVLADLRQKEGDFRKAESLYREALFRAQELRKQDPDLLTGIYSLLAHLYDRWGRMDKAAEFYELALKISAENGLEESDKVATIKNNLAMIFKQLRKFERAEGYYCEALETFQRLDGEQSARVASVYNNLGVLYYSHMDVDRAQVMHERALAIRQNLHEGQMDPADLSQTFINLGAVYKAAGDFQKAEACVDRAKRIRAAMNGYHPNPRRSASLLIDKSL
notes: Bklc (bacterial kinesin light chain), Prosthecobacter vanneervenii; Uniprot id A8Y5U5_9BACT; GenBank CAP16140.1; the bklc gene was expressed from pHis17; Construct was a gift from M. Pilhofer; Monomer by SEC and AUC; also called Bklc-His; source: E. coli C41 (DE3), purified (Ni-NTA, SEC); not shown: His-tag, C-terminal, kept
stoichiometry N: ~1 Bklc monomer per BtubA/B heterodimer
